Experimental data taken from PMC12208167.

Assays:
[1] = target: human neonatal Fc receptor (FcRn) (human) (UniProt P55899); assay: ELISA
[2] = target: murine neonatal Fc receptor (FcRn) (mouse | not stated) (UniProt Q61559); assay: ELISA
[3] = target: human neonatal Fc receptor (FcRn) (human) (UniProt P55899); assay: SPR
[4] = target: murine neonatal Fc receptor (FcRn) (mouse | not stated) (UniProt Q61559); assay: SPR

Chain of UniProt P55899 (P55899 27-297, chain 1 of 2): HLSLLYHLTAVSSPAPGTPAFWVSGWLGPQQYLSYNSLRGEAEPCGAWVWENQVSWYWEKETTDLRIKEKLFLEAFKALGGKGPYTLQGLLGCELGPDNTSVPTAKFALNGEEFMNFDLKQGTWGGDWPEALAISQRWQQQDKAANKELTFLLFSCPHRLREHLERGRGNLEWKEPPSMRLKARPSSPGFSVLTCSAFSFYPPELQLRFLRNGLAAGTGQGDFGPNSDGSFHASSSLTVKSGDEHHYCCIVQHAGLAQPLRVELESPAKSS
Chain of UniProt P55899 (P61769 21-119, chain 2 of 2, further chain): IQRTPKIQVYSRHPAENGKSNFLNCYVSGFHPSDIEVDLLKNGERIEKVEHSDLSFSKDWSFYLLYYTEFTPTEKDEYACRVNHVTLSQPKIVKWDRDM
Chain of UniProt Q61559 (Q61559 22-365, chain 1 of 2): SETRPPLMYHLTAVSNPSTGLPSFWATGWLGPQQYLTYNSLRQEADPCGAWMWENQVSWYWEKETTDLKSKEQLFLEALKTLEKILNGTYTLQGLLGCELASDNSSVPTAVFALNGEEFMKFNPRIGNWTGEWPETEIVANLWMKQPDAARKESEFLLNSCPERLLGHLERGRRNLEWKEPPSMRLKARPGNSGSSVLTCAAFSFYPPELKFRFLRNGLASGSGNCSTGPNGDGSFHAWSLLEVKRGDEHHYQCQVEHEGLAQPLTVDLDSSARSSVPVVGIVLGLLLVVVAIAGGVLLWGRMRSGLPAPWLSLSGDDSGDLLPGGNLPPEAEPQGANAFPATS
Chain of UniProt Q61559 (P01887 21-119, chain 2 of 2, further chain): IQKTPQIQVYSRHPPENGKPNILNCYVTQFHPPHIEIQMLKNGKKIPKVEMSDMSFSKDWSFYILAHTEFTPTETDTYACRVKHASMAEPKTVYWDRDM

Q: What does the source list for “B domain-deleted (BDD) FVIII (ReFacto AF) (natural protein)”?
A: EC50 [1]: 1140 nM; EC50 [2]: 130 nM

Q: With “m66.6, human anti-MPER HIV monoclonal IgG1 (antibody)” as the substance, how does the Kd [3] read?
A: Its Kd is 1.3 to 2.8 nM.

Q: And the Kd [4]?
A: The Kd was 0.2 to 0.4 nM.
